Measurements as given in US20240125796A1.

Experiments:
[1] = target: Herceptin antibody labelled with biotin; assay: mass photometry; first 500 s after 25 mM free biotin, release of Herc-B from immobilised streptavidin
[2] = target: Herceptin antibody labelled with biotin; assay: mass photometry; consecutive measurement with 25 mM free biotin, compared with the PBS control
[3] = target: Herceptin antibody labelled with biotin; assay: mass photometry; control with PBS as release agent, streptavidin-coated coverslip loaded with Herc-B
[4] = target: Herceptin antibody labelled with biotin; assay: mass photometry; first 500 s after 25 mM free biotin, compared with the PBS control
[5] = target: Herceptin antibody labelled with biotin; assay: mass photometry; consecutive measurement with 25 mM free biotin, release of Herc-B from immobilised streptavidin

## streptavidin (from UniProt P22629 37-163)
[1]
  Difference UB - B: 179 counts
  Unbinding (UB) events, MW 76 to 273 kDa: 460 counts
[2]
  Percentage increase to control: 79.8%
[3]
  Difference UB - B: 17 counts
  Unbinding (UB) events, MW 76 to 273 kDa: 161 counts
[4]
  Percentage increase to control: 90.5%
[5]
  Difference UB - B: 84 counts
  Unbinding (UB) events, MW 76 to 273 kDa: 565 counts
